In publication PMC4753561:
Values joined by “and” are separate entries in the source; they are usually repeats but may differ in a detail not shown here. Equal values may be shown once. Read-outs that look alike come from different tables or passages of the source.

Key:
[1] = target: Hepatitis B Virus core protein assembly domain (Cp149) dimer (Hepatitis B Virus); assay: resistive-pulse sensing
[2] = target: Hepatitis B Virus core protein assembly domain (Cp149) dimer (Hepatitis B Virus); assay: resistive-pulse sensing; remark: listed apart in the source
[3] = target: Hepatitis B Virus core protein assembly domain (Cp149) dimer (Hepatitis B Virus); assay: SEC

Hepatitis B Virus core protein assembly domain (Cp149) dimer (domain or fragment)
stoichiometry N [1]: 90 subunit and 120 subunit
pseudo-critical dimer concentration [2]: 0.5 µM
stoichiometry N [2]: 105 dimers and 77 dimers
pseudo-critical dimer concentration [3]: 0.5 µM
